Test results reported in patent JP2012157315A.

Molecular target: EGFR (ミズーリ州セントルイス、シグマ社) (UniProt P00533)
Assay: SPR (BIACORE X), fusion protein amine-coupled to the chip, 10-100 nM EGFR in flow

B1: celB+Lama glama由来の抗EGFRのVHH抗体+Hisタグ融合タンパク質 (VHH, not shown: small tags and cut ends)
chain: QQVGTTADAHPRLTTYKCTSQNGCTRQNTSLVLDAATHFIHKKGTQTSCTNSNGLDTAICPDKQTCADNCVVDGITDYASYGVQTKNDTLTLQQYLQTGNATKSLSPRVYLLAEDGENYSMLKLLNQEFTFDVDASTLVCGMNGALYLSEMEASGGKSSLNQAGAKYGTGYCDAQCYTTPWINGEGNTESVGSCCQEMDIWEANARATGLTPHPCNTTGLYECSGSGCGDSGVCDKAGCGFNPYGLGAKDYYGYGLKVNTNETFTVVTQFLTNDNTTSGQLSEIRRLYIQNGQVIQNAAVTSGGKTVDSITKDFCSGEGSAFNRLGGLEEMGHALGRGMVLALSIWNDAGSFMQWLDGGSAGPCNATEGNPALIEKLYPDTHVKFSKIRWGDIGSTYRHQVQLVESGGGLVQAGDSLRLSCVDSGRDFSDYVMGWFRQAPGKEREFVAAISRNGITTRYADSVKGRFTISRDNDKNTVYLQMNSLKPEDTAVYYCATNSAGTYVSPRSRDYDGWGQGTQVTVSS
**Q.** With B1 as the binder, how does the Kd read?
**A.** 14.7 nM
